Source: paper PMC2711614 (The Journal of Cell Biology, 2009)

T1: His6-Hof1-C (amino acids 341–669) (S. cerevisiae, UniProt Q05080 341-669)
T1 sequence (looked up): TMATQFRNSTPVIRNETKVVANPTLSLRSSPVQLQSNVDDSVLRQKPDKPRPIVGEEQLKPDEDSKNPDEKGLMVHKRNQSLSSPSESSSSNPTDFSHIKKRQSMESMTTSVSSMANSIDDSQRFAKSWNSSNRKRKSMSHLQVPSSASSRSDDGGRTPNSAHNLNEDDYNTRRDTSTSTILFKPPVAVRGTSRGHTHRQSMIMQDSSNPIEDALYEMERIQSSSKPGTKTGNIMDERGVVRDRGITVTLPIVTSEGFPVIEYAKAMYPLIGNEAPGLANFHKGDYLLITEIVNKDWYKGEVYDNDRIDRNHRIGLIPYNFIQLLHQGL

B1: His6-tagged Cyk3 SH3 domain fragment (amino acids 1–70) (domain or fragment, S. cerevisiae, UniProt Q07533 1-70, looked up)
chain: MATNLTSLKPPFKVKARYGWSGQTKGDLGFLEGDIMEVTRIAGSWFYGKLLRNKKCSGYFPHNFVILLEE
B2: GST-Inn1-tail (amino acids 131–409), wild type (domain or fragment, S. cerevisiae, UniProt P53901 131-409, looked up)
chain: LTFTPKVPRLNRDDLNKEMDRLDSSMAMRPIPPLPTESEYDYVHGSTMRQITPQCVSTSHEDKDEGQPYRNGNVFSMSSKSDTAVLANSNDPIILPPTFSASMGTTSTLETNDTAISNTSNTKFHFANLRKLKEKINIFKNPDSSTNNCQNESNKVDIEALQKAIGVTSLSYDEDDDDDDENDAFYSSSHRVSHNYNQPPLPPIPTRDDMSNYSSSRNTPLVRRDRPSRLDSSSPNSHPHPSGLNSPKLPPLPTTSNSNFNSRKNSMSPTRKRPPPRLS

How the values were obtained:
[1] = molecular target: B2; experiment: pull-down
[2] = molecular target: T1, His6-Hof1-C (amino acids 341–669); experiment: pull-down

Binder | binding result [1] | binding result [2]
B1 | binds | –
B2 | – | binds
